Measurements: US20140045930

Columns and labels:
[1] = biological target: T1, peptide VAKCVEALKERFQASLRD (PheT)
T1 chain: VAKCVEALKERFQASLRD

[2] = biological target: T2, octameric peptide AVSEATIR
T2 chain: AVSEATIR

[3] = biological target: T3, peptide VEALKERFQASLRD (Phenylalanyl-tRNA synthetase)
T3 chain: VEALKERFQASLRD

peptide RLLPAVSEATIRRL = biological target: T4, peptide RLLPAVSEATIRRL
T4 chain: RLLPAVSEATIRRL

[4] = biological target: T5, peptide KLLRLFFPLSLRV (PhoQ)
T5 chain: KLLRLFFPLSLRV

[5] = biological target: T6, peptide LAVLQSTLRSLRS (PhoQ)
T6 chain: LAVLQSTLRSLRS

[6] = biological target: T7, peptide KHVQALDLSMRFR (Nicotinate-nucleotide diphosphorylase)
T7 chain: KHVQALDLSMRFR

[7] = biological target: T8, peptide AQYPQEVITTVRG (PhoP)
T8 chain: AQYPQEVITTVRG

[8] = biological target: T9, peptide LTHSLKTPLAVLQSTLRS (PhoQ)
T9 chain: LTHSLKTPLAVLQSTLRS

[9] = biological target: T10, peptide ELNREQKWQMMLSKSMRR (CaiF)
T10 chain: ELNREQKWQMMLSKSMRR

[10] = biological target: T11, peptide KTPLAVLQSTLRS (PhoQ)
T11 chain: KTPLAVLQSTLRS

[11] = biological target: T12, peptide NTHRGMGYSLRGL (CreB)
T12 chain: NTHRGMGYSLRGL

[12] = biological target: T13, peptide KTPLAVLQSTLRSLR (PhoQ)
T13 chain: KTPLAVLQSTLRSLR

[13] = biological target: T14, peptide ATVAKCVEALKERFQASLRD (PheT)
T14 chain: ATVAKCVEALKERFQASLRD

[14] = biological target: T15, peptide LLRLFFPLSLRV (PhoQ)
T15 chain: LLRLFFPLSLRV

[15] = biological target: T16, peptide LTELNREQKWQMMLSKSMRR (CaiF)
T16 chain: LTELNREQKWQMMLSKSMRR

[16] = biological target: T17, peptide KWQMMLSKSMRR (CaiF)
T17 chain: KWQMMLSKSMRR

B1: Recombinant YcfD, N-terminally hexa-His tagged (E. coli) (protein)
chain: MEYQLTLNWPDFLERHWQKRPVVLKRGFNNFIDPISPDELAGLAMESEVDSRLVSHQDGKWQVSHGPFESYDHLGETNWSLLVQAVNHWHEPTAALMRPFRELPDWRIDDLMISFSVPGGGVGPHLDQYDVFIIQGTGRRRWRVGEKLQMKQHCPHPDLLQVDPFEAIIDEELEPGDILYIPPGFPHEGYALENAMNYSVGFRAPNTRELISGFADYVLQRELGGNYYSDPDVPPRAHPADVLPQEMDKLREMMLELINQPEHFKQWFGEFISQSRHELDIAPPEPPYQPDEIYDALKQGEVLVRLGGLRVLRIGDDVYANGEKIDSPHRPALDALASNIALTAENFGDALEDPSFLAMLAALVNSGYWFFEG
% hydroxylation (+16 Da) [1]: 50% | position of hydroxylation (2D-NMR after incubation with YcfD) [2]: 2D-NMR analyses revealed the position of hydroxylation as at C-3 of the hydroxylated arginine-residue | % hydroxylation (+16 Da) [3]: 40% | +16Da mass shift (hydroxylation, MALDI-TOF MS) (peptide RLLPAVSEATIRRL): gave a +16Da mass shift upon incubation with YcfD in an Fe(II) and 2OG dependent manner | % hydroxylation (+16 Da) [4]: 60% | % hydroxylation (+16 Da) [5]: 60% | % hydroxylation (+16 Da) [6]: 30% | % hydroxylation (+16 Da) [7]: 60% | % hydroxylation (+16 Da) [8]: 90% | % hydroxylation (+16 Da) [9]: 40% | % hydroxylation (+16 Da) [10]: 95% | % hydroxylation (+16 Da) [11]: 30% | % hydroxylation (+16 Da) [12]: 40% | % hydroxylation (+16 Da) [13]: 40% | % hydroxylation (+16 Da) [14]: 50% | % hydroxylation (+16 Da) [15]: 40% | % hydroxylation (+16 Da) [16]: 30%
